These results are taken from patent publication US20090075270A1.

For data set [1], the target named is Kid toxin (endoribonuclease) of the parD locus of E. coli plasmid R1 (Escherichia coli plasmid R1) (UniProt P13976). Nature of the data set: cell-based or functional assay.
Data set [2] has as its target T1, Kis antitoxin of the parD locus of E. coli plasmid R1 (wild type), P13975.
T1 chain: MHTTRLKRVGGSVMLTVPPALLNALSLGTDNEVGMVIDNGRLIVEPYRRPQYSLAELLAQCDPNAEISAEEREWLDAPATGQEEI

For “Kis17, thermo-sensitive mutant Kis antitoxin (P18L) (from UniProt P13975 1-85)”, the repA/copB ratio by Real Time-PCR, kis17kid sample against kiskid sample in data set [1] stood at 38%.

B1: Kid toxin (endoribonuclease) of the parD locus of E. coli plasmid R1 (protein)
chain: MERGEIWLVSLDPTAGHEQQGTRPVLIVTPAAFNRVTRLPVVVPVTSGGNFARTAGFAVSLDGVGIRTTGVVRCDQPRTIDMKARGGKRLERVPETIMNEVLGRLSTILT
With B1, in data set [2], the “cleavage of dnaB mRNA in vitro by purified Kid (4 pmols), alone or with Kis (6 pmols); primer extension” value is “dnaB-mRNA is cleaved by Kid in vitro, and that this effect is inhibited when Kis is added to the reaction”.
